Source: patent US20240164355

Tests used:
[1] = target: all forms of lysine-linked (isopeptide-linked) diubiquitin
[2] = target: SUMO1-AMC, P63165
[3] = target: ISG15-AMC, P05161
[4] = target: SUMO2-AMC, P61956
[5] = target: Nedd8-AMC, Q15843
[6] = target: Ubiquitin-AMC (Ub-AMC), P0CG48
Ubiquitin-AMC (Ub-AMC), P0CG48, sequence (P0CG48 whole entry, looked up): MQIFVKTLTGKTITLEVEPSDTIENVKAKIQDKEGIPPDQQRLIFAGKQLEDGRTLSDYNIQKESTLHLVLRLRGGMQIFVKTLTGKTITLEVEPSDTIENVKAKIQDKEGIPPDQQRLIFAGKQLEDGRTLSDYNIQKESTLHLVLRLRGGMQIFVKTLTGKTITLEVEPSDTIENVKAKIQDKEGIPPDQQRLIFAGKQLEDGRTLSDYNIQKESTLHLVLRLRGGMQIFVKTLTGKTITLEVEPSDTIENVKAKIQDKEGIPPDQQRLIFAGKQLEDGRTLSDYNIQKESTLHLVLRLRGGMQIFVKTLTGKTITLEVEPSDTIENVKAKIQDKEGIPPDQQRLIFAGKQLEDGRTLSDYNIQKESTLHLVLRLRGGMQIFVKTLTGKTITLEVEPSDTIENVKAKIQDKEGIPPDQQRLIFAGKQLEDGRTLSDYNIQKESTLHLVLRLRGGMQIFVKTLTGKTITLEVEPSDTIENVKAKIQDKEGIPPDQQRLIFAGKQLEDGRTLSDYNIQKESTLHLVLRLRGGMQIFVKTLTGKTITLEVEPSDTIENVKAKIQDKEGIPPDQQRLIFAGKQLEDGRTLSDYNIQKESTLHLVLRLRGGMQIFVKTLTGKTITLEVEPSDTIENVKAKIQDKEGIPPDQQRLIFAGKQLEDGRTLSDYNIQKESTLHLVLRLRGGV

Nedd8-AMC, Q15843, sequence (Q15843 whole entry, looked up): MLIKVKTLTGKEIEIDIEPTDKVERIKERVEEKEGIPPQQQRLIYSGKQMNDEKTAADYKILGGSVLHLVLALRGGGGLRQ
SUMO1-AMC, P63165, sequence (P63165 2-97): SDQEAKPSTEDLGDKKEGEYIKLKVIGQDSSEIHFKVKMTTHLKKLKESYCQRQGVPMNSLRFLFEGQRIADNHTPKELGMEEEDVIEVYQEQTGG
SUMO2-AMC, P61956, sequence (P61956 1-93): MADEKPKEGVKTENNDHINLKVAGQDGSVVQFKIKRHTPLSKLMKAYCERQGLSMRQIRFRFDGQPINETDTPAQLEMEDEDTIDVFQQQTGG
ISG15-AMC, P05161, sequence (P05161 2-157): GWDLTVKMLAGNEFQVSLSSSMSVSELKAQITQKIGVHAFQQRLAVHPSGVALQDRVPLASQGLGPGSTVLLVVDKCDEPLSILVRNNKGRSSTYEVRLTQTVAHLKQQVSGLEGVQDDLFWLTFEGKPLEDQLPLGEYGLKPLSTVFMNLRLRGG

B1: CidB (CidB^wPip), full length (protein)
chain: MSNGDGLIRSLVDGDLEGFRQGFESFLDQCPSFLYHVSAGRFLPVFFFSMFSTAHDANILNANERVYFRFDNHGVNPRNGENRNTANLKVAVYRDGQQVVRCYSISDRPNSDGLRFSTRERNALVQEIRRQNPNLREEDLNFEQYKVCMHGKGKSQGEAIATVFEVIREKDRQGRDKFAKYSASEVHFLRQLFRNHRLTIKEIEGRQLNQNQLRQLGRSVNFTRVEPGQQRIDNFMEMLASNQRQDVRDSLRGDILEYVTDTYNNYRAQIENNIEGRSQKFESHGFLLGFLANFSHRYTIGVDLDLSPRNSHVAFLVRHQVERENIPIVINLATRAPPYIALNRARSHAERLHVFSFIPIHTESRNTVCVGLNFNLNLDPFSVDTVGLQQDRFPLVQRLFECLENEGIRENIRDFLLHHLPAEIPRNAENYDRIFDCITGFAFGNSAFDRHPLELEEEDEAPITKYIFRHGDEGLRCLTMVFHAEGSDIVILHIRAHDAQQQGAINLQTLNVNGNDVHVWEVSCTLNNQLELDIDLPNDLGLYHDYQNNNANNFLAGDLVQVPNTENVHNTLNQVVNDGWKNIAQHRGLFQEISGALMPLVDTINVNSEDKFRSILHGTFYASDNPYKVLAMYKVGQTYSLKRGQEEEGERVILTRITEQRLDLLLLRQPRENDLDTHPIGYVLRLANNAEEVGQQQNDARQEIGRLKKQHRGFIPITSGNEVVLFPIVFNRDAHEAGNLILFPEGIGREEHVHRLDRHVRSSRPGGLVGPESVIDENPPEGLLSDQTRENFRRFYEEKAPGQNSIFLLDIGDNLHVPFSYLQGTRAQVIETLKSRIRGGGTPTAQGILQQINAILRRNNAREIEDVHDLLALDFATDNQNYRYWLQTHDMFFAARQYTFLDNQSHSTNDHYGFEITSVGVDGNQNDPTGRGLLSSHITNFKQKVDSGEKDRLIAIINVGNRHWVTLVIVHQNGNYYGYYADSLGPDSGIDNNIRGALRECDINDDNVHNISVHQQTDGHNCGIWVYENARDINQAIDQALQGNNNFGEKGEGIIGYIRGLLSAGIGNDTRQPRRNEQYFEDRRRDISQLLQNDPNLPSRRSDLIQAHPGIQHEIDPLLLQFLGLQYPQRGGGGALQLGGERVISIDFGNPQSALDKIDGVSRVYNHSNSRGSR
**Q.** How did the “diubiquitin cleavage (panel digest)” value [1] turn out when B1 was run?
**A.** The value was “Full length CidB cleaves all forms of lysine-linked (isopeptide-linked) diubiquitin, albeit with variable efficiency”.

B2: CidB(762-1143) (protein)
chain: SSRPGGLVGPESVIDENPPEGLLSDQTRENFRRFYEEKAPGQNSIFLLDIGDNLHVPFSYLQGTRAQVIETLKSRIRGGGTPTAQGILQQINAILRRNNAREIEDVHDLLALDFATDNQNYRYWLQTHDMFFAARQYTFLDNQSHSTNDHYGFEITSVGVDGNQNDPTGRGLLSSHITNFKQKVDSGEKDRLIAIINVGNRHWVTLVIVHQNGNYYGYYADSLGPDSGIDNNIRGALRECDINDDNVHNISVHQQTDGHNCGIWVYENARDINQAIDQALQGNNNFGEKGEGIIGYIRGLLSAGIGNDTRQPRRNEQYFEDRRRDISQLLQNDPNLPSRRSDLIQAHPGIQHEIDPLLLQFLGLQYPQRGGGGALQLGGERV
**Q.** Which results are given for B2?
**A.** UBL-AMC hydrolysis (AMC release) [2]: Despite testing human ISG15-AMC and SUMO1/2-AMC with several concentrations of CidB (up to 400 nM), we failed to detect any AMC release; UBL-AMC hydrolysis (AMC release) [3]: Despite testing human ISG15-AMC and SUMO1/2-AMC with several concentrations of CidB (up to 400 nM), we failed to detect any AMC release; UBL-AMC hydrolysis (AMC release) [4]: Despite testing human ISG15-AMC and SUMO1/2-AMC with several concentrations of CidB (up to 400 nM), we failed to detect any AMC release; kcat/KM for Nedd8-AMC [5]: its kcat/KM for Nedd8-AMC was determined to be 0.69 µM^-1 min^-1; catalytic efficiency for Ub-AMC relative to Nedd8-AMC [6]: CidB^wPip catalytic efficiency for hydrolyzing Ub-AMC is 11-fold greater than for Nedd8-AMC; kcat/KM for Ub-AMC hydrolysis [6]: the kcat/KM for Ub-AMC hydrolysis was 7.59 µM^-1 min^-1

B3: CidB^wMel (797-1128) (protein)
chain: QNSIFLLDIDDNLHVPFSYLQGTRAQAIETLRSRIRGGGTSTAQGILQQINTILRRNNAREIEDVHNLLALDFATENQNFRYWLQTHDMFFAARQYTFHDDRSNPTNDRHDFAITSVGVDGNQNDPTGRDLLSSNIDNFKQKVDSGEKDRLTAIINVGNRHWVTLVIVHQNGNYYGYYADSLGPDSRIDNNIRGALRECDISDDNVHDVSVHQQTDGHNCGIWAYENARDINQAIDQALQGNSNFGEKGEGIIGYIRGLLSAGIGNDTRQPQRNEQYFRNRRRNISQLFQNDSLSSPRGRLIQGRPGIQHEIDPLLLQFLELQYPQRGGGGA
**Q.** Which results are given for B3?
**A.** Nedd8-AMC hydrolysis (AMC release) [5]: both CidB and CidB^wMel cleaved Ub-AMC, and to a much lesser extent, the UBL Nedd8-AMC; Ub-AMC hydrolysis (AMC release) [6]: both CidB and CidB^wMel cleaved Ub-AMC, and to a much lesser extent, the UBL Nedd8-AMC
